The results in this text go back to the supplement of paper PMC5998384.

Series [1] relates to HeLa Kyoto. Description: solubility in G1/S (NP-40 vs SDS abundance) (log2 ratio); higher = more soluble. As to conditions: cell cycle stage: G1/S.
Series [2] has as its system HeLa Kyoto. The series is described as follows: solubility change mitosis vs G1/S (difference of NP-40 vs SDS log2 ratios) (log2 ratio difference); higher = more soluble in mitosis.
Series [3] deals with HeLa Kyoto. The series is described as follows: thermal stability score vs G1/S (z-score of summed log2 fold changes over temperatures); higher = more thermally stable than in G1/S.
The subject of series [4] is HeLa Kyoto. Description: melting temperature (median over replicates), in situ; higher = more thermally stable.
Where [5] appears, read: cell cycle stage: early G1 (4.5 h after nocodazole release).
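Throughout, for melting temperature (median over replicates), in situ: HeLa Kyoto cells synchronized by double thymidine or nocodazole block, proteins quantified by TMT10plex mass spectrometry, three independent biological replicates.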
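Throughout, for solubility change mitosis vs G1/S (difference of NP-40 vs SDS log2 ratios): synchronized HeLa Kyoto cells (double thymidine block for G1/S, nocodazole release for mitosis), protein amounts in NP-40 versus SDS lysates quantified by mass spectrometry, three biological replicates.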
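Throughout, for solubility in G1/S (NP-40 vs SDS abundance): HeLa Kyoto cells arrested at G1/S by double thymidine block, proteins quantified by TMT10plex mass spectrometry in mild NP-40 versus SDS extracts, three biological replicates.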
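Throughout, for thermal stability score vs G1/S (z-score of summed log2 fold changes over temperatures): synchronized HeLa Kyoto cells, proteins quantified by TMT10plex mass spectrometry, three biological replicates, mitosis taken 0.5 h after nocodazole release, G1/S directly after double thymidine block.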

As for “MEQPGQDPTSDDVMDSFLEKFQSQPYRGGFHEDQWEKEFEKVPLFMSRAPSEIDPRENPDLACLQSIIFDEERSPEEQAKTYKDEGNDYFKEKDYKKAVISYTEGLKKKCADPDLNAVLYTNRAAAQYYLGNFRSALNDVTAARKLKPCHLKAIIRGALCHLELKHFAEAVNWCDEGLQIDAKEKKLLEMRAKADKLKRIEQRDVRKANLKEKKERNQNEALLQAIKARNIRLSEAACEDEDSASEGLGELFLDGLSTENPHGARLSLDGQGRLSWPVLFLYPEYAQSDFISAFHEDSRFIDHLMVMFGETPSWDLEQKYCPDNLEVYFEDEDRAELYRVPAKSTLLQVLQHQRYFVKALTPAFLVCVGSSPFCKNFLRGRKVYQIR [TTC4]”, the “solubility in G1/S (log2)” value in the series with HeLa Kyoto [1] turned out to be 0.484. Moreover, in the series with HeLa Kyoto [2], the “solubility change mitosis (log2)” value was -0.0862. The figures for the thermal stability score in the series with HeLa Kyoto [3] (setting [5]) and with HeLa Kyoto [3] (cell cycle stage: mitosis) were -0.209 and 0.287, respectively. Also, the melting temperature was 49.8 °C in the series on HeLa Kyoto [4] (cell cycle stage: G1/S) and 49.4 °C in the series with HeLa Kyoto [4] (cell cycle stage: mitosis).

Turning to “MNRFRVSKFRHTEARPPRRESWISDIRAGTAPSCRNHIKSSCSLIAFNSDRPGVLGIVPLQGQGEDKRRVAHLGCHSDLVTDLDFSPFDDFLLATGSADRTVKLWRLPGPGQALPSAPGVVLGPEDLPVEVLQFHPTSDGILVSAAGTTVKVWDAAKQQPLTELAAHGDLVQSAVWSRDGALVGTACKDKQLRIFDPRTKPRASQSTQAHENSRDSRLAWMGTWEHLVSTGFNQMREREVKLWDTRFFSSALASLTLDTSLGCLVPLLDPDSGLLVLAGKGERQLYCYEVVPQQPALSPVTQCVLESVLRGAALVPRQALAVMSCEVLRVLQLSDTAIVPIGYHVPRKAVEFHEDLFPDTAGCVPATDPHSWWAGDNQQVQKVSLNPACRPHPSFTSCLVPPAEPLPDTAQPAVMETPVGDADASEGFSSPPSSLTSPSTPSSLGPSLSSTSGIGTSPSLRSLQSLLGPSSKFRHAQGTVLHRDSHITNLKGLNLTTPGESDGFCANKLRVAVPLLSSGGQVAVLELRKPGRLPDTALPTLQNGAAVTDLAWDPFDPHRLAVAGEDARIRLWRVPAEGLEEVLTTPETVLTGHTEKICSLRFHPLAANVLASSSYDLTVRIWDLQAGADRLKLQGHQDQIFSLAWSPDGQQLATVCKDGRVRVYRPRSGPEPLQEGPGPKGGRGARIVWVCDGRCLLVSGFDSQSERQLLLYEAEALAGGPLAVLGLDVAPSTLLPSYDPDTGLVLLTGKGDTRVFLYELLPESPFFLECNSFTSPDPHKGLVLLPKTECDVREVELMRCLRLRQSSLEPVAFRLPRVRKEFFQDDVFPDTAVIWEPVLSAEAWLQGANGQPWLLSLQPPDMSPVSQAPREAPARRAPSSAQYLEEKSDQQKKEELLNAMVAKLGNREDPLPQDSFEGVDEDEWD [CORO7]”, the “solubility in G1/S (log2)” value with HeLa Kyoto [1] was -0.00965. Also, in the series on HeLa Kyoto [2], the “solubility change mitosis (log2)” value is 0.159. Moreover, the thermal stability score with HeLa Kyoto [3] (setting [5]) came out at 0.406; in the series with HeLa Kyoto [3] (cell cycle stage: mitosis) it was 0.778. Moreover, the figures for the melting temperature in the series on HeLa Kyoto [4] (cell cycle stage: G1/S) and with HeLa Kyoto [4] (cell cycle stage: mitosis) were 51 °C and 51.9 °C, respectively.

With “MAGGEDRGDGEPVSVVTVRVQYLEDTDPFACANFPEPRRAPTCSLDGALPLGAQIPAVHRLLGAPLKLEDCALQVSPSGYYLDTELSLEEQREMLEGFYEEISKGRKPTLILRTQLSVRVNAILEKLYSSSGPELRRSLFSLKQIFQEDKDLVPEFVHSEGLSCLIRVGAAADHNYQSYILRALGQLMLFVDGMLGVVAHSDTIQWLYTLCASLSRLVVKTALKLLLVFVEYSENNAPLFIRAVNSVASTTGAPPWANLVSILEEKNGADPELLVYTVTLINKTLAALPDQDSFYDVTDALEQQGMEALVQRHLGTAGTDVDLRTQLVLYENALKLEDGDIEEAPGAGGRRERRKPSSEEGKRSRRSLEGGGCPARAPEPGPTGPASPVGPTSSTGPALLTGPASSPVGPPSGLQASVNLFPTISVAPSADTSSERSIYKARFLENVAAAETEKQVALAQGRAETLAGAMPNEAGGHPDARQLWDSPETAPAARTPQSPAPCVLLRAQRSLAPEPKEPLIPASPKAEPIWELPTRAPRLSIGDLDFSDLGEDEDQDMLNVESVEAGKDIPAPSPPLPLLSGVPPPPPLPPPPPIKGPFPPPPPLPLAAPLPHSVPDSSALPTKRKTVKLFWRELKLAGGHGVSASRFGPCATLWASLDPVSVDTARLEHLFESRAKEVLPSKKAGEGRRTMTTVLDPKRSNAINIGLTTLPPVHVIKAALLNFDEFAVSKDGIEKLLTMMPTEEERQKIEEAQLANPDIPLGPAENFLMTLASIGGLAARLQLWAFKLDYDSMEREIAEPLFDLKVGMEQLVQNATFRCILATLLAVGNFLNGSQSSGFELSYLEKVSEVKDTVRRQSLLHHLCSLVLQTRPESSDLYSEIPALTRCAKVDFEQLTENLGQLERRSRAAEESLRSLAKHELAPALRARLTHFLDQCARRVAMLRIVHRRVCNRFHAFLLYLGYTPQAAREVRIMQFCHTLREFALEYRTCRERVLQQQQKQATYRERNKTRGRMITETEKFSGVAGEAPSNPSVPVAVSSGPGRGDADSHASMKSLLTSRPEDTTHNRRSRGMVQSSSPIMPTVGPSTASPEEPPGSSLPSDTSDEIMDLLVQSVTKSSPRALAARERKRSRGNRKSLRRTLKSGLGDDLVQALGLSKGPGLEV [FHOD1]”, the “solubility in G1/S (log2)” value with HeLa Kyoto [1] came to 0.185. Further, the “solubility change mitosis (log2)” value in the series on HeLa Kyoto [2] is -0.13. In addition, the values for the thermal stability score in the series with HeLa Kyoto [3] (setting [5]) and with HeLa Kyoto [3] (cell cycle stage: mitosis) were 1.05 and 2.72, respectively. Further, the melting temperature in the series on HeLa Kyoto [4] (cell cycle stage: G1/S) amounted to 48 °C; in the series with HeLa Kyoto [4] (cell cycle stage: mitosis), 48.1 °C.

For “MAYNDTDRNQTEKLLKRVRELEQEVQRLKKEQAKNKEDSNIRENSAGAGKTKRAFDFSAHGRRHVALRIAYMGWGYQGFASQENTNNTIEEKLFEALTKTRLVESRQTSNYHRCGRTDKGVSAFGQVISLDLRSQFPRGRDSEDFNVKEEANAAAEEIRYTHILNRVLPPDIRILAWAPVEPSFSARFSCLERTYRYFFPRADLDIVTMDYAAQKYVGTHDFRNLCKMDVANGVINFQRTILSAQVQLVGQSPGEGRWQEPFQLCQFEVTGQAFLYHQVRCMMAILFLIGQGMEKPEIIDELLNIEKNPQKPQYSMAVEFPLVLYDCKFENVKWIYDQEAQEFNITHLQQLWANHAVKTHMLYSMLQGLDTVPVPCGIGPKMDGMTEWGNVKPSVIKQTSAFVEGVKMRTYKPLMDRPKCQGLESRIQHFVRRGRIEHPHLFHEEETKAKRDCNDTLEEENTNLETPTKRVCVDTEIKSII [PUS3]”, the “solubility in G1/S (log2)” value with HeLa Kyoto [1] turned out to be 0.0227. For the same sequence, the “solubility change mitosis (log2)” value in the series with HeLa Kyoto [2] is -0.169. Further, the thermal stability score was 0.0981 in the series with HeLa Kyoto [3] (setting [5]) and -0.181 in the series on HeLa Kyoto [3] (cell cycle stage: mitosis). In addition, the melting temperature with HeLa Kyoto [4] (cell cycle stage: G1/S) was 51.6 °C; with HeLa Kyoto [4] (cell cycle stage: mitosis) it was 52.7 °C.
